# Measurements: the supplement of paper PMC10724198
# Test system: Saccharomyces cerevisiae
# Experiment: protein stability index of tFT-peptide fusion in deletion strain of DAS1 (PSI (0-1 scale)); higher = more stable (slower turnover)
# Details: not given
# Protocol: (§1)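 MPS profiling in S. cerevisiae of two library types built from selected 12-aa C-degron peptides (IN1, IN2, LN1, LN3, VN2, R1-R5, W1-W3, Atg1 and Rpa12 C-termini): saturation mutagenesis libraries and C-terminal +1 capping libraries (13 aa). Each peptide is fused to the C-terminus of a sfGFP-mCherry timer, after a GGGS linker. Cells are FACS-sorted into 8 mCherry/sfGFP bins and sequenced. PSI runs from 0 (unstable) to 1 (stable), measured once in wild type and in the das1Δ or doa10Δ background.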
# 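Wherever protein stability index of tFT-peptide fusion in deletion strain of DAS1 is given: PSI is a weighted mean of each variant's read distribution over the sorted stability bins, computed only for variants having over 10 reads in total.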
# 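Wherever protein stability index of tFT-peptide fusion in wild type is given: PSI derived as read-weighted mean over the 8 sorting bins, only variants exceeding 10 total reads kept, mCherry placed adjacent to the peptide and sfGFP distal.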
row,Sequence,protein stability index
1,ARWRVGLWRGRS,0.679
2,ARWRVGLWRHAS,0.688
3,ARWRVGLWRNAS,0.693
4,ARWRVGLWRYAS,0.686
5,ARWRVMLWRGAS,0.705
6,ARWRVYLWRGAS,0.618
7,AVWRVGLWRGAS,0.678
8,CDKRNHLIKLLN,0.589
9,CPSCGYKFRTNN,0.754
10,CTECGYKFRTNN,0.678
11,CTPCGYKFRTNN,0.686
12,CTSCFYKFRTNN,0.677
13,CTSCGDKFRTNN,0.696
14,CTSCGKKFRTNN,0.688
15,CTSCGYKERTNN,0.699
16,CTSCGYKFDTNN,0.705
17,CTSCGYKFETNN,0.707
18,CTSCGYKFKTNN,0.725
19,CTSCGYKFMTNN,0.676
20,CTSCGYKFRENN,0.693
21,CTSCGYKFRMNN,0.686
22,CTSCGYKFRTNG,0.685
23,CTSCGYKFRTNNS,0.7
24,CTSCGYKFRTNNW,0.716

row,Sequence,protein stability index
1,CTSCGYKFRTNQ,0.691
2,CTSCGYKFRTNW,0.705
3,CTSCGYKMRTNN,0.669
4,CTSCGYKSRTNN,0.703
5,CTSCGYNFRTNN,0.704
6,CTSCSYKFRTNN,0.686
7,CTSFGYKFRTNN,0.678
8,CTSKGYKFRTNN,0.667
9,CTSMGYKFRTNN,0.689
10,CTSTGYKFRTNN,0.681
11,DDKRNHLIKLLN,0.595
12,DRGAVGGWRLVG,0.655
13,DSMRWTFRYWVN,0.582
14,DVVYLSCVACIN,0.0312
15,EDKRNHLIKLLN,0.599
16,EKILRQKMNHQN,0.681
17,FSCRWTFRYWVN,0.51
18,FSMRWDFRYWVN,0.585
19,FSMRWGFRYWVN,0.646
20,FSMRWTFRHWVN,0.625
21,FSMRWTFRYRVN,0.586
22,FSMRWTFRYSVN,0.53
23,FSMRWTFRYTVN,0.476
24,FSMRWTFRYWEN,0.54

row,Sequence,protein stability index
1,FSMRWTFRYWQN,0.614
2,FSMRWTFRYWVA,0.545
3,FSMRWTFRYWVK,0.45
4,FSMRWTFRYWVL,0.457
5,FSMRWTFRYWVNY,0.471
6,FSMRWTFSYWVN,0.497
7,FSMRWTGRYWVN,0.587
8,FSMRWYFRYWVN,0.526
9,FSYRWTFRYWVN,0.53
10,FTSCGYKFRTNN,0.676
11,FVMRWTFRYWVN,0.272
12,ILIQPLPVQFLN,0.59
13,ISLAASFWRVVG,0.663
14,ISMRWTFRYWVN,0.481
15,KIHKKGQKQKIN,0.494
16,KKHKDGQKQKIN,0.602
17,KKHKEGQKQKIN,0.581
18,KKHKHGQKQKIN,0.637
19,KKHKKGFKQKIN,0.589
20,KKHKKGQDQKIN,0.574
21,KKHKKGQKEKIN,0.606
22,KKHKKGQKQGIN,0.606
23,KKHKKGQKQKIA,0.597
24,KKHKKGQKQKIND,0.658

row,Sequence,protein stability index
1,KKHKKGQKQKINH,0.668
2,KKHKKGQKQKINW,0.657
3,KKHKKGQPQKIN,0.6
4,KKHKKKQKQKIN,0.593
5,KKHKNGQKQKIN,0.622
6,KKHKSGQKQKIN,0.603
7,KKHYKGQKQKIN,0.618
8,KKRKKGQKQKIN,0.571
9,KKYKKGQKQKIN,0.613
10,KLIQPLPVQFLN,0.574
11,KRWRVGLWRGAS,0.681
12,LGVYLSCVACIN,0.166
13,LKDLRQKMNHQN,0.671
14,LKIERQKMNHQN,0.682
15,LKILEQKMNHQN,0.66
16,LKILHQKMNHQN,0.645
17,LKILLQKMNHQN,0.678
18,LKILREKMNHQN,0.678
19,LKILRQEMNHQN,0.672
20,LKILRQKENHQN,0.681
21,LKILRQKMHHQN,0.706
22,LKILRQKMNDQN,0.687
23,LKILRQKMNHNN,0.688
24,LKILRQKMNHQA,0.629

row,Sequence,protein stability index
1,LKILRQKMNHQNF,0.698
2,LKILRQKMNHQNH,0.69
3,LKILRQKMNHQS,0.68
4,LKILRQKMNHRN,0.653
5,LKILRQKNNHQN,0.687
6,LKILRQKSNHQN,0.688
7,LKILRQMMNHQN,0.692
8,LKILYQKMNHQN,0.679
9,LKIVRQKMNHQN,0.696
10,LVPYLSCVACIN,0.366
11,LVRYLSCVACIN,0.316
12,LVVILSCVACIN,0.0419
13,LVVNLSCVACIN,0.172
14,LVVYESCVACIN,0.402
15,LVVYISCVACIN,0.0366
16,LVVYKSCVACIN,0.415
17,LVVYLECVACIN,0.0239
18,LVVYLGCVACIN,0.192
19,LVVYLSCMACIN,0.0753
20,LVVYLSCPACIN,0.513
21,LVVYLSCVACINS,0.0599

# Test system: Saccharomyces cerevisiae
# Experiment: protein stability index of tFT-peptide fusion in wild type (PSI (0-1 scale)); higher = more stable (slower turnover)
# Details: genetic background: wild type
# Protocol: as §1
row,Sequence,protein stability index
1,ARWRVGLWRGRS,0.66
2,ARWRVGLWRHAS,0.0927
3,ARWRVGLWRNAS,0.11
4,ARWRVGLWRYAS,0.0836
5,ARWRVMLWRGAS,0.305
6,ARWRVYLWRGAS,0.378
7,AVWRVGLWRGAS,0.409
8,CDKRNHLIKLLN,0.153
9,CPSCGYKFRTNN,0.361
10,CTECGYKFRTNN,0.357
11,CTPCGYKFRTNN,0.248
12,CTSCFYKFRTNN,0.173
13,CTSCGDKFRTNN,0.48
14,CTSCGKKFRTNN,0.5
15,CTSCGYKERTNN,0.632
16,CTSCGYKFDTNN,0.667
17,CTSCGYKFETNN,0.656
18,CTSCGYKFKTNN,0.642
19,CTSCGYKFMTNN,0.477
20,CTSCGYKFRENN,0.691
21,CTSCGYKFRMNN,0.412
22,CTSCGYKFRTNG,0.399
23,CTSCGYKFRTNNS,0.683
24,CTSCGYKFRTNNW,0.705

row,Sequence,protein stability index
1,CTSCGYKFRTNQ,0.498
2,CTSCGYKFRTNW,0.695
3,CTSCGYKMRTNN,0.227
4,CTSCGYKSRTNN,0.673
5,CTSCGYNFRTNN,0.642
6,CTSCSYKFRTNN,0.267
7,CTSFGYKFRTNN,0.127
8,CTSKGYKFRTNN,0.269
9,CTSMGYKFRTNN,0.148
10,CTSTGYKFRTNN,0.214
11,DDKRNHLIKLLN,0.146
12,DRGAVGGWRLVG,0.176
13,DSMRWTFRYWVN,0.0763
14,DVVYLSCVACIN,0.0164
15,EDKRNHLIKLLN,0.078
16,EKILRQKMNHQN,0.137
17,FSCRWTFRYWVN,0.065
18,FSMRWDFRYWVN,0.0502
19,FSMRWGFRYWVN,0.0673
20,FSMRWTFRHWVN,0.0837
21,FSMRWTFRYRVN,0.059
22,FSMRWTFRYSVN,0.154
23,FSMRWTFRYTVN,0.0631
24,FSMRWTFRYWEN,0.5

row,Sequence,protein stability index
1,FSMRWTFRYWQN,0.106
2,FSMRWTFRYWVA,0.202
3,FSMRWTFRYWVK,0.49
4,FSMRWTFRYWVL,0.0913
5,FSMRWTFRYWVNY,0.114
6,FSMRWTFSYWVN,0.0568
7,FSMRWTGRYWVN,0.0626
8,FSMRWYFRYWVN,0.059
9,FSYRWTFRYWVN,0.0328
10,FTSCGYKFRTNN,0.207
11,FVMRWTFRYWVN,0.0377
12,ILIQPLPVQFLN,0.093
13,ISLAASFWRVVG,0.109
14,ISMRWTFRYWVN,0.059
15,KIHKKGQKQKIN,0.0466
16,KKHKDGQKQKIN,0.0686
17,KKHKEGQKQKIN,0.12
18,KKHKHGQKQKIN,0.0725
19,KKHKKGFKQKIN,0.0758
20,KKHKKGQDQKIN,0.616
21,KKHKKGQKEKIN,0.124
22,KKHKKGQKQGIN,0.703
23,KKHKKGQKQKIA,0.128
24,KKHKKGQKQKIND,0.666

row,Sequence,protein stability index
1,KKHKKGQKQKINH,0.653
2,KKHKKGQKQKINW,0.643
3,KKHKKGQPQKIN,0.0925
4,KKHKKKQKQKIN,0.0427
5,KKHKNGQKQKIN,0.145
6,KKHKSGQKQKIN,0.106
7,KKHYKGQKQKIN,0.0621
8,KKRKKGQKQKIN,0.111
9,KKYKKGQKQKIN,0.0672
10,KLIQPLPVQFLN,0.0526
11,KRWRVGLWRGAS,0.443
12,LGVYLSCVACIN,0.0766
13,LKDLRQKMNHQN,0.192
14,LKIERQKMNHQN,0.333
15,LKILEQKMNHQN,0.473
16,LKILHQKMNHQN,0.293
17,LKILLQKMNHQN,0.249
18,LKILREKMNHQN,0.183
19,LKILRQEMNHQN,0.437
20,LKILRQKENHQN,0.365
21,LKILRQKMHHQN,0.231
22,LKILRQKMNDQN,0.552
23,LKILRQKMNHNN,0.239
24,LKILRQKMNHQA,0.19

row,Sequence,protein stability index
1,LKILRQKMNHQNF,0.616
2,LKILRQKMNHQNH,0.655
3,LKILRQKMNHQS,0.23
4,LKILRQKMNHRN,0.493
5,LKILRQKNNHQN,0.425
6,LKILRQKSNHQN,0.581
7,LKILRQMMNHQN,0.176
8,LKILYQKMNHQN,0.259
9,LKIVRQKMNHQN,0.197
10,LVPYLSCVACIN,0.182
11,LVRYLSCVACIN,0.0691
12,LVVILSCVACIN,0.0224
13,LVVNLSCVACIN,0.0111
14,LVVYESCVACIN,0.343
15,LVVYISCVACIN,0.0144
16,LVVYKSCVACIN,0.218
17,LVVYLECVACIN,0.0187
18,LVVYLGCVACIN,0.135
19,LVVYLSCMACIN,0.0207
20,LVVYLSCPACIN,0.469
21,LVVYLSCVACINS,0.029
